From US20220095596A1, “USE OF ECM1 GENE-KNOCKOUT MOUSE IN SCREENING OF ANTI-HEPATIC FIBROSIS DRUG” (CENTER FOR EXCELLENCE IN MOLECULAR CELL SCIENCE, CHINESE …, priority 2018, published 2022)

B1: recombinant mouse ECM1 protein: Recombinant mouse extracellular matrix protein 1 added to the culture medium (protein, UniProt Q61508 20-559, looked up)
Extracellular matrix protein 1: ASEGAFKASDQREMTPERLFQHLHEVGYAAPPSPPQTRRLRVDHSVTSLHDPPLFEEQREVQPPSSPEDIPVYEEDWPTFLNPNVDKAGPAVPQEAIPLQKEQPPPQVHIEQKEIDPPAQPQEEIVQKEVKPHTLAGQLPPEPRTWNPARHCQQGRRGVWGHRLDGFPPGRPSPDNLKQICLPERQHVIYGPWNLPQTGYSHLSRQGETLNVLETGYSRCCRCRSDTNRLDCLKLVWEDAMTQFCEAEFSVKTRPHLCCRLRGEERFSCFQKEAPRPDYLLRPCPVHQNGMSSGPQLPFPPGLPTPDNVKNICLLRRFRAVPRNLPATDAIQRQLQALTRLETEFQRCCRQGHNHTCTWKAWEGTLDGYCERELAIKTHPHSCCHYPPSPARDECFAHLAPYPNYDRDILTLDLSRVTPNLMGQLCGSGRVLSKHKQIPGLIQNMTIRCCELPYPEQACCGEEEKLAFIENLCGPRRNSWKDPALCCDLSPEDKQINCFNTNYLRNVALVAGDTGNATGLGEQGPTRGTDANPAPGSKEE

Columns and labels:
[1] = system: primary stellate cells (HSC); assay: Self-activation of primary stellate cells (HSC) cultured in vitro, related gene expression by RT-PCR; format: cell-based; settings: ECM1 protein 50 µg/ml, cRGD 10 µg/ml; WT mouse HSC cultured in vitro 2 weeks, vs unrelated IgG (NC)
Procedure: B: Primary stellate cells (HSC) from the liver of wild-type mouse (WT) are isolated and cultured in vitro for 2 weeks. Recombinant mouse ECM1 protein ([…]), cRGD ([…]) or unrelated IgG protein ([…]) are added to the culture medium as negative control (NC). Changing fresh culture medium every 3 days. Two weeks later, It is lysed with TRIZO and mRNA is extracted, and cDNA is obtained by reverse transcription. Finally, the expression of related genes is detected by RT-PCR.
The primary stellate cells (HSC) of the mouse liver will self-activate during in vitro culture. This is because of the change in culture conditions, the Latent TGF-β1 secreted by the cells will be activated by integrin αv on the cell surface to activate stellate cells (HSC). In this process, the addition of integrin αv inhibitor (cRGD) or TGF-β1 neutralizing antibody will inhibit the self-activation of stellate cells (HSC).
Therefore, primary stellate cells (HSC) from the liver of wild-type mice (WT) were isolated and cultured in vitro for 2 weeks. Recombinant mouse ECM1 protein ([…]), cRGD ([…]) or unrelated IgG protein ([…]) were added to the culture medium as negative control (NC). Changing fresh culture solution every 3 days. […] Finally, the expression of related genes was detected by RT-PCR to determine the activation degree of primary stellate cells (HSC).

[2] = system: Latent TGF-β1 activation on the surface of stellate cells (HSC); assay: TGF-β1 activity reporter co-culture of primary HSC with NIH-3T3 luciferase reporter cells; format: cell-based; settings: 50 g/ml in culture medium, 16 hours of culture, WT mouse HSC with NIH-3T3 reporter cells, vs unrelated IgG (NC)
Procedure: A: Primary stellate cells (HSC) from the liver of wild-type mice (WT) are isolated and co-cultured with NIH-3T3 cells containing the TGF-β1 activity reporter system. Recombinant mouse ECM1 protein ([…]), cRGD ([…]) or unrelated IgG protein ([…]) are added to the culture medium as negative control (NC). After 16 hours of the culture, the cells are lysed, and Luciferase activity in the lysate is detected.
The process of Latent TGF-β1 activation to TGF-β1 is a transient effect. Activated TGF-β1 will bind to TGF-β1 receptor on the adjacent cell surface, phosphorylating the downstream SMAD protein, and then activating the downstream gene expression. In order to better detect the process of Latent TGF-β1 activation to TGF-β1, we used a co-culture system to detect the […] activation process that occurs on the surface of HSC stellate cells. A luciferase reporter gene was stably transfected into NIH-3T3 cells. There are 4 repeated SMAD binding sites in the upstream of this reporter gene. […]
Firstly, primary stellate cells (HSC) of wild-type mouse (WT) liver were isolated and co-cultured with NIH-3T3 cells containing TGF-β1 activity reporter system. […] After 16 hours of culture, the cells were lysed, and Luciferase activity in the lysate was detected. […]

Molecule | activation of stellate cells (HSC), expression of related genes by RT-PCR [1] | activation of Latent TGF-β1 on the surface of stellate cells (HSC), Luciferase activity [2]
cRGD [reference compound] | significantly inhibit | 
B1 | significantly inhibit | significantly inhibit
